Data on two molecules can be found in paper PMC2779236 (The Journal of Cell Biology, 2009).

Where two headings read alike, the source gives them in different places.

Data set [1] has as its target rat CEACAM1 D(2–4)-His ectodomain (rat). The data set is described as follows: cross-linking.
The target of data set [2] is T1, rat CEACAM1 D(1–4)-Fc fusion protein (rat, UniProt P16573 35-425).
T1 sequence (looked up): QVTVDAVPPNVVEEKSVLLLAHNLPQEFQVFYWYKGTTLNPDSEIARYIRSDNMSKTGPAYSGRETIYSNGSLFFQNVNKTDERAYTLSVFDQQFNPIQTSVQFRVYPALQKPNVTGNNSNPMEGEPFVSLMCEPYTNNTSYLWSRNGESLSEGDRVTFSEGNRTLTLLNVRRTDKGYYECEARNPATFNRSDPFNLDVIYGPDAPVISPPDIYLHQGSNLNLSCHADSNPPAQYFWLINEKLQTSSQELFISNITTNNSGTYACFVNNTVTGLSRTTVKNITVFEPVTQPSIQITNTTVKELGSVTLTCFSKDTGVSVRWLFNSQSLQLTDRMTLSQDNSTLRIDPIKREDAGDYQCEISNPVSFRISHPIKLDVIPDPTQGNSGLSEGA
The data set is described as follows: SPR.

Data set [3] concerns the molecule itself. The data set is described as follows: molecular electron tomography.
Data set [4] deals with the molecule itself. The data set is described as follows: molecular electron tomography. This is another data set of the same source.

Regarding “rat CEACAM1 D(2–4)-His ectodomain (domain or fragment)”, the fold lower percentage of cross-linked dimers than D(1–4) in data set [1] was 4 fold lower.

B1: rat CEACAM1 D(1–4)-His ectodomain (domain or fragment, UniProt P16573 35-425, looked up)
chain: QVTVDAVPPNVVEEKSVLLLAHNLPQEFQVFYWYKGTTLNPDSEIARYIRSDNMSKTGPAYSGRETIYSNGSLFFQNVNKTDERAYTLSVFDQQFNPIQTSVQFRVYPALQKPNVTGNNSNPMEGEPFVSLMCEPYTNNTSYLWSRNGESLSEGDRVTFSEGNRTLTLLNVRRTDKGYYECEARNPATFNRSDPFNLDVIYGPDAPVISPPDIYLHQGSNLNLSCHADSNPPAQYFWLINEKLQTSSQELFISNITTNNSGTYACFVNNTVTGLSRTTVKNITVFEPVTQPSIQITNTTVKELGSVTLTCFSKDTGVSVRWLFNSQSLQLTDRMTLSQDNSTLRIDPIKREDAGDYQCEISNPVSFRISHPIKLDVIPDPTQGNSGLSEGA
modifications: glycosylated (polydisperse, varying degrees of glycosylation; average molecular mass 81 kD)
With B1, in data set [2], the Kd amounted to 11.2 µM, the koff was determined as 0.508 ± 0.0078 s⁻¹ and the kon is 45300 ± 3600 M⁻¹ s⁻¹. In data set [3], the “KD monomer/A-dimer” value was 260 µM and the “KD monomer/C-dimer” value came to 72.1 µM. Besides, in data set [4], the “KD monomer/A-dimer” value was 113 µM and the “KD monomer/C-dimer” value was determined as 43.8 µM.

As usually defined, the Kd is the constant that tells how readily two partners part at equilibrium. The low end stands for higher affinity, the high end for lower affinity. As a reminder, the koff is the first-order rate constant of dissociation. A low value points to a long-lived complex. One may read the kon as the second-order rate constant of association. A lower kon goes with slower complex formation.
